Test results from article PMC6698733.

T1: Dhr1 isolated C-terminal domain (CTD) (Saccharomyces cerevisiae, UniProt Q04217 1176-1267)
T1 sequence: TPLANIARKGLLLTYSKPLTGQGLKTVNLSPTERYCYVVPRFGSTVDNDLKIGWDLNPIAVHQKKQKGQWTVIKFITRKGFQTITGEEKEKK


Biological target: T1, Dhr1 isolated C-terminal domain (CTD)
Assay: not stated

| Binder | binding result |
| --- | --- |
| UUUUUUUUUUUUUUU (ssRNA) [poly(U)15] | no binding |
| AAAAAAAAAAAAAAA (ssRNA) [poly(A)15] | no binding |
